# From PMC11098746 (2024)
# Biological target: Circumsporozoite protein (CSP) (Plasmodium falciparum (isolate 3D7), UniProt Q7K740)
# Test: AVEXIS screen signal:noise (double-corrected)
# Chain of Circumsporozoite protein (CSP) (Q7K740 19-374): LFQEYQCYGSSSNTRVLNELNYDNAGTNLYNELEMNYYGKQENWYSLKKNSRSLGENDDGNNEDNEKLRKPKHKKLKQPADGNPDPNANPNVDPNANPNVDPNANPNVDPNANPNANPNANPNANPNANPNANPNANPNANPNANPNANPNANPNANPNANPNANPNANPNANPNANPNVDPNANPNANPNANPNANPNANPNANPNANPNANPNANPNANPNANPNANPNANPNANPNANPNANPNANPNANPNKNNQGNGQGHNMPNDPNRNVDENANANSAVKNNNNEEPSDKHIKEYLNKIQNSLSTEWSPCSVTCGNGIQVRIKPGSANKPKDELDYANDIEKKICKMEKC
row,Binder,binding score
1,"ADP135 (protein, bait human Fc-tagged dimer) MTPPRLFWVWLLVAGTQGVNDGDMRLADGGATNQGRVEIFYRGQWGTVCDNLWDLTDASVVCRALGFENATQALGRAAFGQGSGPIMLDEVQCTGTEASLADCKSLGWLKSNCRHERDAGVVCTNETRSTHTLDLSRELSEALGQIFDSQRGCDLSISVNVQGEDALGFCGHTVILTANLEAQALWKEPGSNVTMSVDAECVPMVRDLLRYFYSRRIDITLSSVKCFHKLASAYGARQLQGYCASLFAILLPQDPSFQMPLDLYAYAVATGDALLEKLCLQFLAWNFEALTQAEAWPSVPTDLLQLLLPRSDLAVPSELALLKAVDTWSWGERASHEEVEGLVEKIRFPMMLPEELFELQFNLSLYWSHEALFQKKTLQALEFHTVPFQLLARYKGLNLTEDTYKPRIYTSPTWSAFVTDSSWSARKSQLVYQSRRGPLVKYSSDYFQAPSDYRYYPYQSFQTPQHPSFLFQDKRVSWSLVYLPTIQSCWNYGFSCSSDELPVLGLTKSGGSDRTIAYENKALMLCEGLFVADVTDFEGWKAAIPSALDTNSSKSTSSFPCPAGHFNGFRTVIRPFYLTNSSGVD",0.514
2,"ADP109 (protein, bait human Fc-tagged dimer) MGIQGGSVLFGLLLVLAVFCHSGHSLQCYNCPNPTADCKTAVNCSSDFDACLITKAGLQVYNKCWKFEHCNFNDVTTRLRENELTYYCCKKDLCNFNEQLEN",1.68
3,"ADP347 (protein, bait human Fc-tagged dimer) MAATLGPLGSWQQWRRCLSARDGSRMLLLLLLLGSGQGPQQVGAGQTFEYLKREHSLSKPYQGVGTGSSSLWNLMGNAMVMTQYIRLTPDMQSKQGALWNRVPCFLRDWELQVHFKIHGQGKKNLHGDGLAIWYTKDRMQPGPVFGNMDKFVGLGVFVDTYPNEEKQQERVFPYISAMVNNGSLSYDHERDGRPTELGGCTAIVRNLHYDTFLVIRYVKRHLTIMMDIDGKHEWRDCIEVPGVRLPRGYYFGTSSITGDLSDNHDVISLKLFELTVERTPEEEKLHRDVFLPSVDNMKLPEMTAPLPPLSGLA",0.741
4,"ADP131 (protein, bait human Fc-tagged dimer) MVRMVSWSFHKLKTMKHLLLLLLCVFLVKSQGVNDNEEGFFSARGHRPLDKKREEAPSLRPAPPPISGGGYRARPAKAAATQKKVERKAPDAGGCLHADPDLGVLCPTGCQLQEALLQQERPIRNSVDELNNNVEAVSQTSSSSFQYMYLLKDLWQKRQKQVKDNENVVNEYSSELEKHQLYIDETVNSNIPTNLRVLRSILENLRSKIQKLESDVSAQMEYCRTPCTVSCNIPVVSGKECEEIIRKGGETSEMYLIQPDSSVKPYRVYCDMNTENGGWTVIQNRQDGSVDFGRKWDPYKQGFGNVATNTDGKNYCGLPGEYWLGNDKISQLTRMGPTELLIEMEDWKGDKVKAHYGGFTVQNEANKYQISVNKYRGTAGNALMDGASQLMGENRTMTIHNGMFFSTYDRDNDGWLTSDPRKQCSKEDGGGWWYNRCHAANPNGRYYWGGQYTWDMAKHGTDDGVVWMNWKGSWYSMRKMSMKIRPFFPQQ",0.806
5,"ADP149 (protein, bait human Fc-tagged dimer) MAWKHVPFLVMISLLSLSPNHLFLAQLIPDPEDVERGNDHGTPIPTSDNDDNSLGYTGSRLRQEDFPPRIVEHPSDLIVSKGEPATLNCKAEGRPTPTIEWYKGGERVETDKDDPRSHRMLLPSGSLFFLRIVHGRKSRPDEGVYVCVARNYLGEAVSHNASLEVAILRDDFRQNPSDVMVAVGEPAVMECQPPRGHPEPTISWKKDGSPLDDKDERITIRGGKLMITYTRKSDAGKYVCVGTNMVGERESEVAELTVLERPSFVKRPSNLAVTVDDSAEFKCEARGDPVPTVRWRKDDGELPKSRYEIRDDHTLKIRKVTAGDMGSYTCVAENMVGKAEASATLTVQEPPHFVVKPRDQVVALGRTVTFQCEATGNPQPAIFWRREGSQNLLFSYQPPQSSSRFSVSQTGDLTITNVQRSDVGYYICQTLNVAGSIITKAYLEVTDVIADRPPPVIRQGPVNQTVAVDGTFVLSCVATGSPVPTILWRKDGVLVSTQDSRIKQLENGVLQIRYAKLGDTGRYTCIASTPSGEATWSAYIEVQEFGVPVQPPRPTDPNLIPSAPSKPEVTDVSRNTVTLSWQPNLNSGATPTSYIIEAFSHASGSSWQTVAENVKTETSAIKGLKPNAIYLFLVRAANAYGISDPSQISDPVKTQDVLPTSQGVDHKQVQRELGNAVLHLHNPTVLSSSSIEVHWTVDQQSQYIQGYKILYRPSGANHGESDWLVFEVRTPAKNSVVIPDLRKGVNYEIKARPFFNEFQGADSEIKFAKTLEEAPSAPPQGVTVSKNDGNGTAILVSWQPPPEDTQNGMVQEYKVWCLGNETRYHINKTVDGSTFSVVIPFLVPGIRYSVEVAASTGAGSGVKSEPQFIQLDAHGNPVSPEDQVSLAQQISDVVKQP",0.924
6,"ADP292 (protein, bait human Fc-tagged dimer) MARPGSAQRWAAVAGRWGCRLLALLLLVPGPGGASEITFELPDNAKQCFYEDIAQGTKCTLEFQVITGGHYDVDCRLEDPDGKVLYKEMKKQYDSFTFTASKNGTYKFCFSNEFSTFTHKTVYFDFQVGEDPPLFPSENRVSALTQMESACVSIHEALKSVIDYQTHFRLREAQGRSRAEDLNTRVA",1.08
7,"ADP312 (protein, bait human Fc-tagged dimer) MALDRPGEGATMLKTFTVLLFCIRMSLGMTSIVMDPQPELWIESNYPQAPWENITLWCRSPSRISSKFLLLKDKTQMTWIRPSHKTFQVSFLIGALTESNAGLYRCCYWKETGWSKPSKVLELEAPGQLPKPIFWIQAETPALPGCNVNILCHGWLQDLVFMLFKEGYAEPVDYQVPTGTMAIFSIDNLTPEDEGVYICRTHIQMLPTLWSEPSNPLKLVVAGLYPKPTLTAHPGPIMAPGESLNLRCQGPIYGMTFALMRVEDLEKSFYHKKTIKNEANFFFQSLKIQDTGHYLCFYYDASYRGSLLSDVLKIWVTDTFPKTWLLARPSAVVQMGQNVSLRCRGPVDGVGLALYKKGEDKPLQFLDATSIDDNTSFFLNNVTYSDTGIYSCHYLLTWKTSIRMPSHNTVELMVVDKPPKPSLSAWPSTVFKLGKAITLQCRVSHPVLEFSLEWEERETFQKFSVNGDFIISNVDGKGTGTYSCSYRVETHPNIWSHRSEPLKLMGPAGYLTWNYVLN",0.61
8,"ADP391 (protein, bait human Fc-tagged dimer) SSRHVLLQEEVAELQGQVQRTEVARGRLEKRNSDLLLLVDTHKKQIDQKEADYGRLSSRLQAREGLGKRCEDDKVKLQNNISYQMADIHHLKEQLAELRQEFLRQEDQLQDYRKNNTYLVKRLEYESFQCGQQMKELRAQHEENIKKLADQFLEEQKQETQKIQSNDGKELDINNQVVPKNIPKVAENVADKNEEPSSNHIPHGKEQIKRGGDAGMPGIEENDLAKVDDLPPALRKPPISVSQHESHQAISHLPTGQPLSPNMPPDSHINHNGNPGTSKQNPSSPLQRLIPGSNLDSEPRIQTDILKQATKDRVSDFHKLKQSRFFDENESPVDPQHGSKLADYNGDDGNVGEYEADKQAELAYNEEEDGDGGEEDVQGERGPGLHAITMKPTSKFFG",0.592
9,"ADP111 (protein, bait human Fc-tagged dimer) MVLLRVLILLLSWAAGMGGQYGNPLNKYIRHYEGLSYNVDSLHQKHQRAKRAVSHEDQFLRLDFHAHGRHFNLRMKRDTSLFSDEFKVETSNKVLDYDTSHIYTGHIYGEEGSFSHGSVIDGRFEGFIQTRGGTFYVEPAERYIKDRTLPFHSVIYHEDDINYPHKYGPQGGCADHSVFERMRKYQMTGVEEVTQIPQEEHAANGPELLRKKRTTSAEKNTCQLYIQTDHLFFKYYGTREAVIAQISSHVKAIDTIYQTTDFSGIRNISFMVKRIRINTTADEKDPTNPFRFPNIGVEKFLELNSEQNHDDYCLAYVFTDRDFDDGVLGLAWVGAPSGSSGGICEKSKLYSDGKKKSLNTGIITVQNYGSHVPPKVSHITFAHEVGHNFGSPHDSGTECTPGESKNLGQKENGNYIMYARATSGDKLNNNKFSLCSIRNISQVLEKKRNNCFVESGQPICGNGMVEQGEECDCGYSDQCKDECCFDANQPEGRKCKLKPGKQCSPSQGPCCTAQCAFKSKSEKCRDDSDCAREGICNGFTALCPASDPKPNFTDCNRHTQVCINGQCAGSICEKYGLEECTCASSDGKDDKELCHVCCMKKMDPSTCASTGSVQWSRHFSGRTITLQPGSPCNDFRGYCDVFMRCRLVDADGPLARLKKAIFSPELYENIAEW",0.777
10,"ADP299 (protein, bait human Fc-tagged dimer) MDLRQFLMCLSLCTAFALSKPTEKKDRVHHEPQLSDKVHNDAQSFDYDHDAFLGAEEAKTFDQLTPEESKERLGKIVSKIDGDKDGFVTVDELKDWIKFAQKRWIYEDVERQWKGHDLNEDGLVSWEEYKNATYGYVLDDPDPDDGFNYKQMMVRDERRFKMADKDGDLIATKEEFTAFLHPEEYDYMKDIVVQETMEDIDKNADGFIDLEEYIGDMYSHDGNTDEPEWVKTEREQFVEFRDKNRDGKMDKEETKDWILPSDYDHAEAEARHLVYESDQNKDGKLTKEEIVDKYDLFVGSQATDFGEALVRHDEF",1.11
11,"ADP153 (protein, bait human Fc-tagged dimer) MAGIWTLLPLVLTSVARLSSKSVNAQVTDINSKGLELRKTVTTVETQNLEGLHHDGQFCHKPCPPGERKARDCTVNGDEPDCVPCQEGKEYTDKAHFSSKCRRCRLCDEGHGLEVEINCTRTQNTKCRCKPNFFCNSTVCEHCDPCTKCEHGIIKECTLTSNTKCKEEGS",1.01
12,"ADP159 (protein, bait human Fc-tagged dimer) MAALRPTLLPPSLPLLLLLMLGMGCWAREVLVPEGPLYRVAGTAVSISCNVTGYEGPAQQNFEWFLYRPEAPDTALGIVSTKDTQFSYAVFKSRVVAGEVQVQRLQGDAVVLKIARLQAQDAGIYECHTPSTDTRYLGSYSGKVELRVLPDVLQVSAAPPGPRGRQAPTSPPRMTVHEGQELALGCLARTSTQKHTHLAVSFGRSVPEAPVGRSTLQEVVGIRSDLAVEAGAPYAERLAAGELRLGKEGTDRYRMVVGGAQAGDAGTYHCTAAEWIQDPDGSWAQIAEKRAVLAHVDVQTLSSQLAVTVGPGERRIGPGEPLELLCNVSGALPPAGRHAAYSVGWEMAPAGAPGPGRLVAQLDTEGVGSLGPGYEGRHIAMEKVASRTYRLRLEAARPGDAGTYRCLAKAYVRGSGTRLREAASARSRPLPVHVREEGVVLEAVAWLAGGTVYRGETASLLCNISVRGGPPGLRLAASWWVERPEDGELSSVPAQLVGGVGQDGVAELGVRPGGGPVSVELVGPRSHRLRLHSLGPEDEGVYHCAPSAWVQHADYSWYQAGSARSGPVTVYPYMHALDT",0.885
13,"ADP372 (protein, bait human Fc-tagged dimer) MARAMAAAWPLLLVALLVLSWPPPGTGDVVVQAPTQVPGFLGDSVTLPCYLQVPNMEVTHVSQLTWARHGESGSMAVFHQTQGPSYSESKRLEFVAARLGAELRNASLRMFGLRVEDEGNYTCLFVTFPQGSRSVDIWLRVLAKPQNTAEVQKVQLTGEPVPMARCVSTGGRPPAQITWHSDLGGMPNTSQVPGFLSGTVTVTSLWILVPSSQVDGKNVTCKVEHESFEKPQLLTVNLTVYYPPEVSISGYDNNWYLGQNEATLTCDARSNPEPTGYNWSTTMGPLPPFAVAQGAQLLIRPVDKPINTTLICNVTNALGARQAELTVQVKEGPPSEHSGISRN",1.04
